Test results as given in patent US8163700B2, “Inhibitors of myelin-associated glycoprotein (MAG) activity for regulating neural growth and regeneration” (Research Foundation of City University of New York, priority 2002, dated 2012).

Columns and labels:
[1] = biological target: T1, NgR (Homo sapiens, UniProt Q9BZR6); conditions: described in the art; cited from earlier work
T1 sequence (Q9BZR6 27-447): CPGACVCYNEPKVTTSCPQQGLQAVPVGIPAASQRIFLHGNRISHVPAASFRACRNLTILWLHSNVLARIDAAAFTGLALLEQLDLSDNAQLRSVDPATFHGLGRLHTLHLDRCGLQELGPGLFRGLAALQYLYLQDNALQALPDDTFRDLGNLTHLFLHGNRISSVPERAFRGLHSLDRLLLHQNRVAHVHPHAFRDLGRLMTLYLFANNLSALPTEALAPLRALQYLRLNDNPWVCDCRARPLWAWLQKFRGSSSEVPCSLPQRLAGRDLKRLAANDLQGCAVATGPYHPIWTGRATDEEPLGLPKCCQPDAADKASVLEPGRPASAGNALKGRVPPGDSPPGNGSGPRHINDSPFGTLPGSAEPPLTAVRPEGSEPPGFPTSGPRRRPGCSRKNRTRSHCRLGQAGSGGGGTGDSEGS

[2] = biological target: T2, Nogo (Homo sapiens, UniProt Q9NQC3, S458P); conditions: described in the art; cited from earlier work
T2 sequence (Q9NQC3 1-1192 S458P): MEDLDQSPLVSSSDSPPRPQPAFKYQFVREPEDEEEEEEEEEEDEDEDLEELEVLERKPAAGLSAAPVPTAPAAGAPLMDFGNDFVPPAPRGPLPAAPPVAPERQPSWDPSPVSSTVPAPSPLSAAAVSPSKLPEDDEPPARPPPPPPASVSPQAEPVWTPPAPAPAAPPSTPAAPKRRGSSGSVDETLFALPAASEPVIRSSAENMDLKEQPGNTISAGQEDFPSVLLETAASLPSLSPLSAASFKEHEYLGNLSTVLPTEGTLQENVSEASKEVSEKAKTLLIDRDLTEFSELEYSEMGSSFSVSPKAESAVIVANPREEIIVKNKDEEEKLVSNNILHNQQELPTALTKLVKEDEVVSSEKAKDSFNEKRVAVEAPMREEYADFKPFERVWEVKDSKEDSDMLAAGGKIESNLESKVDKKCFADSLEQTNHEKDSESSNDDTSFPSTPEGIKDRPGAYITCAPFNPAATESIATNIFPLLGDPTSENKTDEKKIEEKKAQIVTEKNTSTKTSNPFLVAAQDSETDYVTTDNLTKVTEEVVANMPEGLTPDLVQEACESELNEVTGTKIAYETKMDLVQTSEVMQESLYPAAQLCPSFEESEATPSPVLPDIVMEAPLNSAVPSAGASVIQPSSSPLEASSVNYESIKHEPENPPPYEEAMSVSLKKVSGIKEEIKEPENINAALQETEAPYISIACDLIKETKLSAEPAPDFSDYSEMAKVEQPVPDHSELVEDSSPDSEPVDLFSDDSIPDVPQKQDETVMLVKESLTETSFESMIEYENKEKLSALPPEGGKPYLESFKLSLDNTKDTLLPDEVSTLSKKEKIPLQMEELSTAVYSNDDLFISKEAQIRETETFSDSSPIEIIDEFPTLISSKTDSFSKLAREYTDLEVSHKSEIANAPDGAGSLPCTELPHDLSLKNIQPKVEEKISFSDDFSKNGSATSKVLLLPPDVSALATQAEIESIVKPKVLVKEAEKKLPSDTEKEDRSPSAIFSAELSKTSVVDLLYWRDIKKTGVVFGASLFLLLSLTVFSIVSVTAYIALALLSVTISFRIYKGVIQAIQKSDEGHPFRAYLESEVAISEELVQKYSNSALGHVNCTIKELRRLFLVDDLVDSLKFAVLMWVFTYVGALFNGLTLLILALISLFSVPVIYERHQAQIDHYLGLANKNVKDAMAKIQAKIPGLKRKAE

[3] = tested on: cerebellar neurons; assay: Neurite outgrowth of cerebellar neurons on CHO cell monolayers expressing MAG or truncated, deleted or chimeric MAG derivatives (FIG. 1); format: cell-based; conditions: cerebellar neurons grown overnight on CHO cells expressing the construct, versus control-transfected CHO cells; GAP-43 staining
Method: FIG. 1 Inhibition of neurite outgrowth from cerebellar neurons by truncated MAG or chimeric MAG Cerebellar neurons were isolated (Example 1) and grown overnight on a monolayer of control-transfected CHO cells (clear bar) or a monolayer of CHO cells expressing wild-type MAG or truncated, deleted or chimeric MAG derivatives (grey bars). (See Example 2). Neurons were stained for GAP-43 antigen and neurite length was measured and the average length was calculated for 180-200 neurons (+/−SEM).
Cerebellar neurons were isolated essentially as described in Doherty et al., Nature, 343, pp. 464-66 (1990); Neuron, 5, pp. 209-19 (1990); and Kleitman et al., Culturing Nerve Cells, pp. 337-78, MIT Press, Cambridge, Mass./London, England (G. Banker and K. Goslin, Eds.) (1991). Briefly, for animals up to nine days of age, the cerebellum was removed from two animals, and placed in 5 ml of 0.025% trypsin in PBS, triturated, and incubated for a further 10 minutes (min) at 37° C. […]
Confluent monolayers of control, MAG-, truncated MAG- or chimeric MAG-Sn-expressing CHO cells were established over a 24-hour (h) period in individual chambers of an 8-well tissue culture slide (Lab-Tek). […] The length of the longest neurite for each GAP43-positive neuron was determined using the Biological Detection System image analysis program (Pittsburgh).

Molecule	binding to NgR [1]	inhibition of axonal outgrowth [2]	inhibition of neurite outgrowth by the expressed MAG construct [3]
Nogo-66 amino acid residues 31-55: prior-art peptide of Nogo-66 residues 31-55 (hNogo-A residues 1085-1109 of SEQ ID NO: 9) (EELVQKYSNSALGHVNCTIKELRRL; listed as Homo sapiens)	can bind to NgR	inhibit axonal outgrowth	–
MAG: full-length MAG containing all five Ig-like domains, expressed on CHO cells (protein, UniProt P20917 1-627, looked up, full-length, full-length MAG containing all five Ig-like domains, expressed on CHO cells) MIFLATLPLFWIMISASRGGHWGAWMPSTISAFEGTCVSIPCRFDFPDELRPAVVHGVWYFNSPYPKNYPPVVFKSRTQVVHESFQGRSRLLGDLGLRNCTLLLSTLSPELGGKYYFRGDLGGYNQYTFSEHSVLDIVNTPNIVVPPEVVAGTEVEVSCMVPDNCPELRPELSWLGHEGLGEPTVLGRLREDEGTWVQVSLLHFVPTREANGHRLGCQAAFPNTTLQFEGYASLDVKYPPVIVEMNSSVEAIEGSHVSLLCGADSNPPPLLTWMRDGMVLREAVAKSLYLDLEEVTPGEDGVYACLAENAYGQDNRTVELSVMYAPWKPTVNGTVVAVEGETVSILCSTQSNPDPILTIFKEKQILATVIYESQLQLELPAVTPEDDGEYWCVAENQYGQRATAFNLSVEFAPIILLESHCAAARDTVQCLCVVKSNPEPSVAFELPSRNVTVNETEREFVYSERSGLLLTSILTIRGQAQAPPRVICTSRNLYGTQSLELPFQGAHRLMWAKIGPVGAVVAFAILIAIVCYITQTRRKKNVTESSSFSGGDNPHVLYSPEFRISGAPDKYESEKQRLGSERRLLGLRGESPELDLSYSHSDLGKRPTKDSYTLTEELAEYAEIRVK	–	–	capable of inhibiting neurite outgrowth
